Laboratory results from IntAct's records for PubMed 20802513.

B1: Focal adhesion kinase 1 (Gallus gallus (Chicken)), Q00944 (parent)
chain: MAAAYLDPNLNHTPSSSAKTHLGTGMERSPGAMERVLKVFHYFENSSEPTTWASIIRHGDATDVRGIIQKIVDCHKVKNVACYGLRLSHLQSEEVHWLHLDMGVSNVREKFELAHPPEEWKYELRIRYLPKGFLNQFTEDKPTLNFFYQQVKNDYMLEIADQVDQEIALKLGCLEIRRSYGEMRGNALEKKSNYEVLEKDVGLRRFFPKSLLDSVKAKTLRKLIQQTFRQFANLNREESILKFFEILSPVYRFDKECFKCALGSSWIISVELAIGPEEGISYLTDKGANPTHLADFNQVQTIQYSNSEDKDRKGMLQLKIAGAPEPLTVTAPSLTIAENMADLIDGYCRLVNGATQSFIIRPQKEGERALPSIPKLANNEKQGVRSHTVSVSETDDYAEIIDEEDTYTMPSTRDYEIQRERIELGRCIGEGQFGDVHQGIYMSPENPAMAVAIKTCKNCTSDSVREKFLQEALTMRQFDHPHIVKLIGVITENPVWIIMELCTLGELRSFLQVRKFSLDLASLILYAYQLSTALAYLESKRFVHRDIAARNVLVSATDCVKLGDFGLSRYMEDSTYYKASKGKLPIKWMAPESINFRRFTSASDVWMFGVCMWEILMHGVKPFQGVKNNDVIGRIENGERLPMPPNCPPTLYSLMTKCWAYDPSRRPRFTELKAQLSTILEEEKLQQEERMRMESRRQVTVSWDSGGSDEAPPKPSRPGYPSPRSSEGFYPSPQHMVQPNHYQVSGYSGSHGIPAMAGSIYPGQASLLDQTDSWNHRPQEVSAWQPNMEDSGTLDVRGMGQVLPTHLMEERLIRQQQEMEEDQRWLEKEERFLVMKPDVRLSRGSIEREDGGLQGPAGNQHIYQPVGKPDHAAPPKKPPRPGAPHLGSLASLNSPVDSYNEGVKIKPQEISPPPTANLDRSNDKVYENVTGLVKAVIEMSSKIQPAPPEEYVPMVKEVGLALRTLLATVDESLPVLPASTHREIEMAQKLLNSDLAELINKMKLAQQYVMTSLQQEYKKQMLTAAHALAVDAKNLLDVIDQARLKMISQSRPH

Variants of: B1
Settings: with pgfrb_human PDGFRB

Variant | effect of a mutation on the interaction
Y5F;Y194F | disrupting interaction
